Three molecules from US20230287120A1 (ALLOGENE THERAPEUTICS, published 2023) can be followed below.

For orientation: Kd means a measure of binding affinity in units of concentration. A lower Kd goes with a tighter complex.

In test [1] the target is T1, human DLL3 extracellular domain (ECD) with C-terminal 8xHis tag and Avi tag (human, UniProt Q9NYJ7 27-492).
T1 construct: extracellular domain; Expressed in Expi293, purified by IMAC and SEC; also called huDLL3; not shown: Avi tag
T1 sequence: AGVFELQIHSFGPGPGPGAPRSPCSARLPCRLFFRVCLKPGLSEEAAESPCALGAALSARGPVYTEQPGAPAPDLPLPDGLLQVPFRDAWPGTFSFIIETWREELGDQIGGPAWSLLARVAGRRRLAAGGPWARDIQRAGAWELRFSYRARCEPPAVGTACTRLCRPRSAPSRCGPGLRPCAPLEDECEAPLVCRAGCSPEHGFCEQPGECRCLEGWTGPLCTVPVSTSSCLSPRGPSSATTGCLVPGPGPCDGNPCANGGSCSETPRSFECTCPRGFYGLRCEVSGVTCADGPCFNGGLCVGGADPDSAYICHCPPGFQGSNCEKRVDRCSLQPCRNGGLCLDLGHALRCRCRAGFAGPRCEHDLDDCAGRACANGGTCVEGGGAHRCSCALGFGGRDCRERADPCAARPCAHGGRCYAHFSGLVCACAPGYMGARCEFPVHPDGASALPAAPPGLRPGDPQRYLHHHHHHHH
The test is described as follows: SPR (Biacore), 37 C; IgG captured on chip, human DLL3 ECD in solution; 1:1 Langmuir fit. (In general: SPR reads the build-up and loss of mass on a sensor chip optically.)

In the next test the target is T2, DSL-EGF6.
T2 construct: also called Human DLL3 DSL-EGF6, N-terminal HA tag, on CHO cells
T2 single chain: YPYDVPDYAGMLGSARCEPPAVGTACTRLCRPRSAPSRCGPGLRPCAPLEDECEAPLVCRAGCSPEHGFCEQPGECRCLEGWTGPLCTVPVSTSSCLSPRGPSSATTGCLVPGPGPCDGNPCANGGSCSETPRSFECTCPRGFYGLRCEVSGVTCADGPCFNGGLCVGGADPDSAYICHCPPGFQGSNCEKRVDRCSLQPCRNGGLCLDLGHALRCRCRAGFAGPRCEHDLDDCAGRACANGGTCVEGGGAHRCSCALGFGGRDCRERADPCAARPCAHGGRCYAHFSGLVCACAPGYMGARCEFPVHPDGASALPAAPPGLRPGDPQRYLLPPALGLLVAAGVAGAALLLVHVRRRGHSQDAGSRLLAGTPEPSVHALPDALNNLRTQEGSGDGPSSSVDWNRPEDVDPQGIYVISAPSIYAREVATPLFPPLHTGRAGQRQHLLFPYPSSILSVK
The test is described as follows: flow cytometry on CHO cells with the HA tagged DLL3 construct, PE anti-mouse IgG.

For a further test, the target named is T3, EGF1-EGF6.
T3 construct: also called Human DLL3 EGF1-EGF6, N-terminal HA tag, on CHO cells
T3 single chain: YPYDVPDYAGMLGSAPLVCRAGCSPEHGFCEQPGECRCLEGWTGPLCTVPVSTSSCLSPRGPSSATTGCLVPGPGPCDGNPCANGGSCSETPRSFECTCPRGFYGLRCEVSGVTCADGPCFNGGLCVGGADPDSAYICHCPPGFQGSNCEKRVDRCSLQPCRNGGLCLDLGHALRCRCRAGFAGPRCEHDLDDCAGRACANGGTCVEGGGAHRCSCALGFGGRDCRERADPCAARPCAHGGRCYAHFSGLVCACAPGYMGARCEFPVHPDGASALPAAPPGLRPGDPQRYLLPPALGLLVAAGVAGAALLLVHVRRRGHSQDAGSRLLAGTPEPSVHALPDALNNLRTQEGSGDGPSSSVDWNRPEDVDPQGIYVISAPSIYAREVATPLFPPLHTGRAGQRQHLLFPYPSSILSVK
Described as above.

The target of another test is T4, EGF2-EGF6.
T4 construct: also called Human DLL3 EGF2-EGF6, N-terminal HA tag, on CHO cells
T4 single chain: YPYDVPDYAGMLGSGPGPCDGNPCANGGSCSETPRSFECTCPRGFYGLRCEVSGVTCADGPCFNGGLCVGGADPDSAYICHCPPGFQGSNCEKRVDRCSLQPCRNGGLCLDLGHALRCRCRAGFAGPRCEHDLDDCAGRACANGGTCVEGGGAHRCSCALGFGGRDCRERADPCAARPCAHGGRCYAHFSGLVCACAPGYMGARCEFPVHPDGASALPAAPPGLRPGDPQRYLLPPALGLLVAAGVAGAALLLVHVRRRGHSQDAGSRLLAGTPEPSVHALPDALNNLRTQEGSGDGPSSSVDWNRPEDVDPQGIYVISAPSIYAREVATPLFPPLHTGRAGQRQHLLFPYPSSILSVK
The test is described as above.

The target in a further test is T5, EGF3-EGF6.
T5 construct: also called Human DLL3 EGF3-EGF6, N-terminal HA tag, on CHO cells
T5 single chain: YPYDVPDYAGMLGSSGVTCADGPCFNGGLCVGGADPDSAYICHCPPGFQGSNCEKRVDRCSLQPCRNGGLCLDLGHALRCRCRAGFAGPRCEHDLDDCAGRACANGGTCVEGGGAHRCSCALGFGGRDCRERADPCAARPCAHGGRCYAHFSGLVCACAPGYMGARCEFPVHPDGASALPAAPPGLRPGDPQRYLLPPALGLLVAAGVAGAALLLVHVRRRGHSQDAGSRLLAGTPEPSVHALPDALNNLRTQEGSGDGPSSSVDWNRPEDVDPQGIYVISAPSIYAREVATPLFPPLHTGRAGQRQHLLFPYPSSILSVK
Described as above.

Another test concerns the target T6, EGF4-EGF6.
T6 construct: also called Human DLL3 EGF4-EGF6, N-terminal HA tag, on CHO cells
T6 single chain: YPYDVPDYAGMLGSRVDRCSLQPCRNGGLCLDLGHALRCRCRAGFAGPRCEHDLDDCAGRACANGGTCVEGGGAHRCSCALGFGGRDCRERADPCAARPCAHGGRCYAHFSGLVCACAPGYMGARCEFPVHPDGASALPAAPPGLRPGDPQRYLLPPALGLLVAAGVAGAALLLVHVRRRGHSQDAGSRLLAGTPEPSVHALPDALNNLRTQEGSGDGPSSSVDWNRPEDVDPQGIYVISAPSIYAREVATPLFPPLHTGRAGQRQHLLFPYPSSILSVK
The description is as above.

A further test concerns the target T7, EGF6.
T7 construct: also called Human DLL3 EGF6, N-terminal HA tag, on CHO cells
T7 single chain: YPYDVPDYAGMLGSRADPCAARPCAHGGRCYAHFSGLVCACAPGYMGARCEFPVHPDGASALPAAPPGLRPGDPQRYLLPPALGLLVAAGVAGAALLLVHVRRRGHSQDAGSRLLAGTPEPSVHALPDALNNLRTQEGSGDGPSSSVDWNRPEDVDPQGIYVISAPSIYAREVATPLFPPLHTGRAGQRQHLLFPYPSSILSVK
The test is described as above.

The target in another test is T8, EGF5-EGF6.
T8 construct: also called Human DLL3 EGF5-EGF6, N-terminal HA tag, on CHO cells
T8 single chain: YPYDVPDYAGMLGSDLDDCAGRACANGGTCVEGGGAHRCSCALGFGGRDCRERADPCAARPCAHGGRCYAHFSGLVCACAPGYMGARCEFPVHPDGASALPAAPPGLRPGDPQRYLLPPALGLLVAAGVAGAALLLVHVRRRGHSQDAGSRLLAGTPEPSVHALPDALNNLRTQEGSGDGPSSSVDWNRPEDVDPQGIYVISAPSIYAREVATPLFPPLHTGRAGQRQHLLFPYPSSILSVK
The test is described as above.

Protocol for DSL-EGF6: (§1) The samples were analyzed by flow cytometry. […] Signals from the PE channel are shown on the x-axis and counts are shown on the y-axis.
Protocol for EGF1-EGF6: as §1
Protocol for EGF2-EGF6: as §1
Protocol for EGF3-EGF6: as §1
Protocol for EGF4-EGF6: as §1
Protocol for EGF5-EGF6: as §1

B1: anti-DLL3 antibody 26C8 (IgG) (antibody, V domains shown)
VH: QVQLQESGPGLVKPSETLSLTCTVSDNSISNYYWSWIRQPPGKGLEWIAYIYYSGTTNYNPSLKSRVTISLDTSKNQFSLQLSSVTAADAAVYYCARVFHWGFAFDIWGQGTMVTVSS
VL: EIVLTQSPGTLSLSPGERATLSCRASQRVSNTYLAWYQQNPGQAPRLLIYGASSRATGIPDRFSGSGSGTDFTLTISRLEPEDFAVYYCQQYGTSPLTFGGGTKVEIK
notes: Full-length monoclonal antibody (IgG)
In turn, B1 returned a Kd in test [1] of 5.54 nM. Further, the binding result with DSL-EGF6 was “binds”; in the test with EGF1-EGF6, “binds”; with EGF2-EGF6, “binds”; in the test with EGF3-EGF6 it was “binds”; in the test with EGF4-EGF6, “no binding”; with EGF6 it was “no binding”. The binding result in the test with EGF5-EGF6 is on record as “no binding”.

B2: anti-DLL3 antibody 6D8 (IgG) (antibody, V domains shown)
VH: QITLKESGPTLVKPTQTLTLTCTFSGFSLSTRGVGVGWIRQPPGKALEWLALIYWNDDKRYSPSLQTRLTITKDTPKNQVVLTMTNMDPVDTATYYCARSNWGNWYFALWGRGTLVTVSS
VL: EIVLTQSPATLSLSPGERATLSCRASQSVSSYLAWYQQKPGQAPRLLIYDAFYRATGIPARFSGSGSGTDFTLTISSLEPEDFAVYYCQHRSNWPITFGQGTRLEIK
notes: as for B1
With B2, the Kd in test [1] was under 1.42 nM. The binding result with DSL-EGF6 is listed as “binds”; in the test with EGF1-EGF6, “binds”; in the test with EGF2-EGF6, “no binding”; with EGF3-EGF6, “no binding”; with EGF4-EGF6 it was “no binding”; with EGF6 it was “no binding”. Further, the binding result in the test with EGF5-EGF6 is given as “no binding”.

B3: anti-DLL3 antibody 5E12 (IgG) (antibody, V domains shown)
VH: EVQLVESGGGLVQPGGSLRLSCAASGFTFSSYDMHWVRQATGKGLEWVSAIGPAGDTYYPGSVKGRFTISRENAKNSLYLQMNSLRAGDTAVYYCARADPPYYYYGMDVWGQGTTVTVSS
VL: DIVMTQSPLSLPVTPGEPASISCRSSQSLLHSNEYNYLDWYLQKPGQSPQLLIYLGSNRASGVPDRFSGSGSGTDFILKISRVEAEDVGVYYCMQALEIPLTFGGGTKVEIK
notes: as for B1
With B3, the Kd in test [1] worked out at 7.76 nM. Further, the binding result with DSL-EGF6 was “binds”; in the test with EGF1-EGF6, “no binding”; in the test with EGF2-EGF6 it was “no binding”; with EGF3-EGF6, “no binding”; with EGF4-EGF6 it was “no binding”; in the test with EGF6 it was “no binding”. The binding result with EGF5-EGF6 is given as “no binding”.
